Data as given in article PMC8399232, “Soy Isoflavones Inhibit Both GPIb-IX Signaling and αIIbβ3 Outside-In Signaling via 14-3-3ζ in Platelet” (Molecules, 2021).

Target: T1, integrin β3 (endogenous, platelets) (mouse (endogenous in platelets), UniProt O54890 26-787)
T1 construct: integrin β3 endogenous in platelets, precipitated with an anti-integrin β3 antibody; platelets were prepared from mice; In platelets β3 stands in the integrin αIIbβ3; also called platelet integrin β3; β3 integrin; source: endogenous, platelet lysate (NP-40 lysis buffer)
T1 sequence (looked up): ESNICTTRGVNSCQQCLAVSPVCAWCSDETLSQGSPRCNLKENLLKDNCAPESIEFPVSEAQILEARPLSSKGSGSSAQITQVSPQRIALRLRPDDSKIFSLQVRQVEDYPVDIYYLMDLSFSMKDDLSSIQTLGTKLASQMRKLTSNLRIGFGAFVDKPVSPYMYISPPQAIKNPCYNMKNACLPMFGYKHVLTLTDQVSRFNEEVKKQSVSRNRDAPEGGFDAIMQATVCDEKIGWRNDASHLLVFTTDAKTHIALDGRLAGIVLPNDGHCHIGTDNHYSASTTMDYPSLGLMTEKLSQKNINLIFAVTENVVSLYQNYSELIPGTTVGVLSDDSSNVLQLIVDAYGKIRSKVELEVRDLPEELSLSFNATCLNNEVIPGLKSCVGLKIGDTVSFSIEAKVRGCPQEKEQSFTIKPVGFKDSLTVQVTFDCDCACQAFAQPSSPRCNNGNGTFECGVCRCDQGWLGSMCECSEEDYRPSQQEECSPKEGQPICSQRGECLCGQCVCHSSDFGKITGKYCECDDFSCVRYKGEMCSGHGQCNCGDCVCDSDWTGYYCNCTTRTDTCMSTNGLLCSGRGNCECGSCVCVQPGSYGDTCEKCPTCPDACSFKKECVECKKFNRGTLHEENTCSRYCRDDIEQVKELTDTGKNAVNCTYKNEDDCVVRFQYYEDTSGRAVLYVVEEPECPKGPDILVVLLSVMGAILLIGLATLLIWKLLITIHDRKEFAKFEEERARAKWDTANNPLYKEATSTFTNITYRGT
Assay: co-IP; platelets pretreated with 0.1 % DMSO, 100 μM isoflavones or 3 μM SQ29548, stimulated with 0.04 U/mL thrombin, lysed in NP-40 lysis buffer; precipitated with integrin β3 antibody and protein A magnetic beads overnight at 4 °C; western blot
Conditions: partners not purified

B1: 14-3-3ζ (endogenous, platelets) (natural protein, mouse (endogenous in platelets), UniProt P63101 1-245, looked up)
chain: MDKNELVQKAKLAEQAERYDDMAACMKSVTEQGAELSNEERNLLSVAYKNVVGARRSSWRVVSSIEQKTEGAEKKQQMAREYREKIETELRDICNDVLSLLEKFLIPNASQPESKVFYLKMKGDYYRYLAEVAAGDDKKGIVDQSQQAYQEAFEISKKEMQPTHPIRLGLALNFSVFYYEILNSPEKACSLAKTAFDEAIAELDTLSEESYKDSTLIMQLLRDNLTLWTSDTQGDEAEAGEGGEN
notes: 14-3-3ζ endogenous in platelets; platelets were prepared from mice; The methods tell of platelets prepared from wild type and GPIbα deficient mice only; the species is not repeated for the co-immunoprecipitation; source: endogenous, platelet lysate (NP-40 lysis buffer)
With B1 as the binder, how does the “fold increase of co-precipitated 14-3-3ζ on platelet activation against resting platelets” value read?
Its value is 2.7 fold.
